Measured values reported in article PMC6166933 (2018).

Tests used:
Recombinant human RO60 [1] = target: T1, Recombinant human RO60 (human, UniProt P10155 1-538); assay: BLI; rRO60 917 nM
Recombinant human RO60 [2] = target: T1, Recombinant human RO60; assay: BLI; rRO60 1833 nM

T1 sequence (P10155 whole entry): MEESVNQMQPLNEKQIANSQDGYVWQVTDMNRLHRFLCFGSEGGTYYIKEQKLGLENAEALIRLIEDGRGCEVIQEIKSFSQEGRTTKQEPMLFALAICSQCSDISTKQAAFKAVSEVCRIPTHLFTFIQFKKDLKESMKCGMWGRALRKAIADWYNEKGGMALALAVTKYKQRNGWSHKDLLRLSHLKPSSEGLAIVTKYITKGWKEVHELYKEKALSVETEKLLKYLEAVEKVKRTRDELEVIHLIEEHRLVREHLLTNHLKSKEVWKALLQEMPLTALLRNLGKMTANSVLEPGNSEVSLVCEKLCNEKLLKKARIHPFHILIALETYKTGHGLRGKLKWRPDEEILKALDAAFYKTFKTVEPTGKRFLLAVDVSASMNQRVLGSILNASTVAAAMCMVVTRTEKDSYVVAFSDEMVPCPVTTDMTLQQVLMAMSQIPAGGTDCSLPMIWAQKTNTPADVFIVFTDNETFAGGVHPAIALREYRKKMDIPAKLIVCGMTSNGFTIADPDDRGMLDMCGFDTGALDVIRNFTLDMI

B1: Recombinant GST-tagged human DDX6 (natural protein)
chain: MSTARTENPVIMGLSSQNGQLRGPVKPTGGPGGGGTQTQQQMNQLKNTNTINNGTQQQAQSMTTTIKPGDDWKKTLKLPPKDLRIKTSDVTSTKGNEFEDYCLKRELLMGIFEMGWEKPSPIQEESIPIALSGRDILARAKNGTGKSGAYLIPLLERLDLKKDNIQAMVIVPTRELALQVSQICIQVSKHMGGAKVMATTGGTNLRDDIMRLDDTVHVVIATPGRILDLIKKGVAKVDHVQMIVLDEADKLLSQDFVQIMEDIILTLPKNRQILLYSATFPLSVQKFMNSHLQKPYEINLMEELTLKGVTQYYAYVTERQKVHCLNTLFSRLQINQSIIFCNSSQRVELLAKKISQLGYSCFYIHAKMRQEHRNRVFHDFRNGLCRNLVCTDLFTRGIDIQAVNVVINFDFPKLAETYLHRIGRSGRFGHLGLAINLITYDDRFNLKSIEEQLGTEIKPIPSNIDKSLYVAEYHSEPVEDEKP
In the case of B1, the koff (Recombinant human RO60 [1]) is reported as 0.0046 s⁻¹ and the koff (Recombinant human RO60 [2]) is reported as 0.0062 s⁻¹.
